The record followed here is the supplement of paper PMC12042874.

± gives the uncertainty stated by the source.

The nature of the series: amyloid nucleation score (Sup35N fusion, yeast selection) (log enrichment); library NNK3; higher = more nucleation; inactive = no reads after selection. The gist of the method: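 Nucleation score: DiMSum log enrichment of output over input reads, centred on the mode score of non-aggregating sequences. Only sequences with at least 100 input reads were kept. Reads came from Illumina sequencing of plasmid inserts before and after 7 days of growth at 30°C without adenine and uracil, in psi-negative yeast expressing Sup35N fused to peptides of 20 random codons after 24 hours of induction with 100 μM copper sulfate.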
Turning to TGVWLRACSYEGEFGEDRKL, the amyloid nucleation score entry is “inactive”.

Consider THLRLIYITD, for which the amyloid nucleation score result is “inactive”.

As for THRFVVLCEIITNPTEMGSG, the amyloid nucleation score was 0.703 ± 0.35.

Regarding THSPKISRFLDNSRMRQFFT, the amyloid nucleation score result is “inactive”.

THSVIFRVRYHLSYNAIRIF: the amyloid nucleation score result was “inactive”.

Regarding TICVYHVSFCIQHRVSRGLL, the amyloid nucleation score was -0.18 ± 0.36.

As for TIEYLAGYFILMSQILGGDV, the amyloid nucleation score entry was “inactive”.

For TIFVTTR, the amyloid nucleation score entry is “inactive”.

For TIHYG, the amyloid nucleation score result is “inactive”.

With TIIDGLKCFFPAFFME, the amyloid nucleation score entry was “inactive”.

TILSPMASSQNKCDKNPMLS yielded an amyloid nucleation score of 1.19 ± 0.073.

Substance TILWGLQTQTQNCVVWKLGR yielded an amyloid nucleation score of 1.69 ± 0.12.

Take TINDLSCGASRDGWMPVYS: the amyloid nucleation score entry is “inactive”.

As to TISCTDNFCSFILIRDGLTH, the amyloid nucleation score stood at 1.96 ± 0.059.

Substance TIYLDNTQLSLFRIGPVARR had an amyloid nucleation score of 1.9 ± 0.094.

With TKASKMTKQIF, the amyloid nucleation score result was “inactive”.

On to TKCNRALHMEVIIQATAVAR, for which the amyloid nucleation score entry is “inactive”.

On to TKEAY, for which the amyloid nucleation score entry was “inactive”.

For the substance TKGFTSLSTIFFKVNKFD, the amyloid nucleation score result is “inactive”.

In turn, TKIYVLLFTSLVLVDTVLFL yielded an amyloid nucleation score of -0.002 ± 0.4.

Consider TKSYSMVSPIRVLNTDLIY, for which the amyloid nucleation score entry is “inactive”.

With TLDLSHTMVCRLEYFSSAIG, the amyloid nucleation score entry was “inactive”.

For the substance TLFFSNDRVRFGRSTSRCHM, the amyloid nucleation score entry is “inactive”.

With TLFLFIMVMGYSLANLVDSS, the amyloid nucleation score entry is “inactive”.

For the substance TLKCQHCIHVLGCVDMLTNF, the amyloid nucleation score is 1.46 ± 0.11.

As for TLKRWLNLDRSSYIRESIKR, the amyloid nucleation score entry was “inactive”.

For the substance TLLPAVQIWHDIKHSTRTSW, the amyloid nucleation score entry was “inactive”.

For TLNFMWASEVLVSMSVSNQL, the amyloid nucleation score result is “inactive”.

For the substance TLPKVMFVIQNYGFFSGFTL, the amyloid nucleation score was 1.32 ± 0.079.

Consider TLSAEGVRRLFTCACSYHEG, for which the amyloid nucleation score was 0.532 ± 0.47.

As for TLSGLVWWCVVFAMAT, the amyloid nucleation score result is “inactive”.

As to TLSSLPVPL, the amyloid nucleation score result is “inactive”.

In the case of TLSWNISCVCSERPFFNMHV, the amyloid nucleation score entry is “inactive”.

On to TLVFHISFGDLVHEILNCAV, for which the amyloid nucleation score was 2.17 ± 0.088.

Take TLWYSFQKSSSNLTRSLGLK: the amyloid nucleation score result was “inactive”.

TLYWFHTGICAYRMWTSVFF: the amyloid nucleation score result is “inactive”.

For the substance TMLLLWYLHWSPAPRDCYLP, the amyloid nucleation score result is “inactive”.

Substance TMRVVFRHKTVNRIEVKVYF came in with an amyloid nucleation score of -0.234 ± 0.69.

Regarding TMSLTDYLCGCSWFWCKTSR, the amyloid nucleation score result is “inactive”.

Regarding TMYCLHLNIMSCWSNSTKKT, the amyloid nucleation score was 2.57 ± 0.083.

Regarding TNIHKTVSMKW, the amyloid nucleation score result is “inactive”.

For TNKLIKFLDFHVRRVAVVGE, the amyloid nucleation score result is “inactive”.

Regarding TNMYSDSVIYVMHYGIPGGP, the amyloid nucleation score was 1.63 ± 0.092.

In the case of TNMYYSRVANDGIF, the amyloid nucleation score entry was “inactive”.

With TNRFSRWCIRRRMSAVRYIG, the amyloid nucleation score result was “inactive”.

Consider TNRIHPFERVLFVCVSGQGV, for which the amyloid nucleation score entry is “inactive”.

As to TNRRN, the amyloid nucleation score result is “inactive”.

Take TNRWSIFTVVLSTMNVASFV: the amyloid nucleation score stood at 0.974 ± 0.18.

TNTNFSVRFRTTKWMAKRRA registered an amyloid nucleation score of 1.4 ± 0.11.

With TNVAHSKSSHHAYFIDWIGQ, the amyloid nucleation score result was “inactive”.

As to TNVCLRRFLVTSLNGWVDGN, the amyloid nucleation score entry is “inactive”.

For TNVLCRSTKNVFYTKGL, the amyloid nucleation score stood at 0.368 ± 0.17.

Regarding TNVSKLLIMSFVCSIHRSHG, the amyloid nucleation score was determined as 0.816 ± 0.18.

Turning to TPDQDMLVMPWISYGGGYWR, the amyloid nucleation score entry is “inactive”.

For TPMIVPLMNSQVVYTLFTTK, the amyloid nucleation score was 2.11 ± 0.076.

For the substance TPMRHYKY, the amyloid nucleation score entry is “inactive”.

For the substance TPQPLIIAQIVASPSEKKLL, the amyloid nucleation score entry was “inactive”.

The substance TPSGCAFNHCVMGTGDFQYM returned an amyloid nucleation score of 2.38 ± 0.073.

Take TQCEVYCIYGVTHGLE: the amyloid nucleation score result is “inactive”.

As to TQCSNTGCCIEGNLT, the amyloid nucleation score result was “inactive”.

Consider TQLHGDLYWLVRMRVWIVEI, for which the amyloid nucleation score result was “inactive”.

Turning to TRAPVECNLCIGIEKDEVVR, the amyloid nucleation score entry was “inactive”.

As for TRFDSVVMRKFYWVGSVRGL, the amyloid nucleation score result was “inactive”.

Regarding TRFSVDVRIFWIINYFLWLL, the amyloid nucleation score entry is “inactive”.

TRISTG: the amyloid nucleation score entry was “inactive”.

On to TRLLVWSETIAVWVRLQN, for which the amyloid nucleation score entry was “inactive”.

Take TRMRTCSKRY: the amyloid nucleation score result was “inactive”.

As to TRNWLDSRKLD, the amyloid nucleation score entry is “inactive”.

TRPSTIHFPVWFVGKSCRCD: the amyloid nucleation score result is “inactive”.

On to TRQNWENNFLLWYGEVMS, for which the amyloid nucleation score result was “inactive”.

As to TRSNRRHVRVT, the amyloid nucleation score entry was “inactive”.

In the case of TRVIRLGGMALSFVFTIISC, the amyloid nucleation score result is “inactive”.

Turning to TRVLSTSGFNQRPNCWFSTM, the amyloid nucleation score entry was “inactive”.

In the case of TRWGCSSSSNFGCFDDKRRL, the amyloid nucleation score entry is “inactive”.

Turning to TRWLCLDKLHLFLLCGKIAI, the amyloid nucleation score entry is “inactive”.

Turning to TRYIIMCPILCRSEMVLPVR, the amyloid nucleation score result is “inactive”.

As for TSCGISSSAGFSVFMSEGAK, the amyloid nucleation score was 0.692 ± 0.13.

Turning to TSCLNKKHAVGFSCVFYH, the amyloid nucleation score entry was “inactive”.

Regarding TSDSMSLNFVTWVNQI, the amyloid nucleation score result was “inactive”.

TSDVEVSRMIVCIWTSFIYQ: the amyloid nucleation score was 0.142 ± 0.52.

Regarding TSERLMVSQITAHILGFHEI, the amyloid nucleation score entry was “inactive”.

Regarding TSETRPIGDA, the amyloid nucleation score entry is “inactive”.

The substance TSFSYNLGTISDRCVWILAD displayed an amyloid nucleation score of -0.116 ± 0.9.

The substance TSILMPASDVLKMQVVPWLS displayed an amyloid nucleation score of 0.904 ± 0.16.

TSILPRSGANVKQLLLVLFV: the amyloid nucleation score entry is “inactive”.

As to TSIMSKGGGSYLSWNWHGWL, the amyloid nucleation score entry is “inactive”.

For TSPPGRIDMQTSWDMFYADE, the amyloid nucleation score result is “inactive”.

TSRHVLR displayed an amyloid nucleation score of -0.187 ± 0.66.

In the case of TSVCSHSEVCGWSYYTDLLS, the amyloid nucleation score result is “inactive”.

With TTCILYPYLWCLMIHMSASN, the amyloid nucleation score was found to be 0.891 ± 0.16.

For TTDGFRVRSTLYNYICVWRY, the amyloid nucleation score result was “inactive”.

Turning to TTEMWKALACPSHRTTRPCS, the amyloid nucleation score entry was “inactive”.

Take TTIYSEVLFRDHCVWQYPDR: the amyloid nucleation score entry was “inactive”.

As for TTMRSIPRGRRT, the amyloid nucleation score entry is “inactive”.

Regarding TVASYVNCKRFVLWNYWLFS, the amyloid nucleation score result is “inactive”.
